{"source": "patent US12466854B2", "about": "“Peptide useful for the transport of molecules through cell barriers” (UNIVERSITÉ GRENOBLE ALPES, priority 2022, dated 2025)", "test_system": "differentiated cellular BBB model", "test": "Study B: permeability of the nanobodies and conjugates through differentiated cellular BBB model (ELISA)", "format": "in vitro ADME, rats", "conditions": "samples at 60 and 120 min, FIG. 7", "experimental": "Cerebral microvessel endothelial cells prepared from 5-week-old male rats were seeded on microporous filters in order to: • evaluate the toxicity of the nanobodies and conjugates during their transfer by kinetic measurement of the sucrose transfer. • evaluate the permeability of the nanobodies and conjugates in the blood/brain direction. Experimental Conditions: • The endothelial cells were seeded on 28 Transwell Polycarbonate filters (porosity 0.4 μm and diameter 12 mm), and cultured in differentiation medium. • The measurement of toxicity (study A) or permeability (study B) of the nanobodies and conjugates was carried out in HBSS Ca/Mg medium supplemented with 0.1% BSA.\nFor study B, the medium collected at 60 min basolaterally was replaced by the same volume of fresh medium.\nThe samples collected at 60 and 120 min were analyzed by ELISA test to evaluate the quantity of nanobodies and conjugates which passed during study B. To be able to analyze the different samples by ELISA, it was necessary to first purify them to remove BSA limiting adhesion to 96-well plates of ELISA test. Thanks to the polyhistidine label present on the 3 nanobodies and conjugates, purifications on a 96-well plate coated with Nickel-NTA were carried out. […]\nAn absorbance reading was carried out at 450 nm after stopping the colorimetric reaction using a 1 N HCl solution. […]", "data": [{"molecule": "2C5: anti-Tau nanobody (VHH, SEQ ID NO: 3) detecting pathological oligomeric forms of Tau protein (protein) VHH: QVQLVQSGGGLVQAGGSLRLSCAASGRTFSSDTLAWFRQAPGKEREFVASISPSGGVTYYEDSVKGRFTISRDNSKNTVLLQMNSLTPEDTAVYYCNRDPKYGNTRYWGQGTQVTVSSAAA", "values": [{"measurement": "passage through the BBB model (blood/brain direction)", "value": "not passing this model"}]}]}
